Assay results from patent publication US20240343823A1 (Ablynx, published 2024).

What was measured:
[1] = target: human GPC3 on tumor cell lines (HepG2, Huh-7, NCI-H661, MKN-45, NCI-H23, BxPC-3, NCI-H292) (human, UniProt P51654 25-554); experiment: cell-based or functional assay
[2] = target: T1, human Glypican-5 (R&D systems, cat no 2607-G5) (human, UniProt P78333 25-553, limits assumed); experiment: ELISA, Glypican-5 coated at 2 ug/mL
T1 construct: Bought; also called GPC5
T1 sequence (looked up): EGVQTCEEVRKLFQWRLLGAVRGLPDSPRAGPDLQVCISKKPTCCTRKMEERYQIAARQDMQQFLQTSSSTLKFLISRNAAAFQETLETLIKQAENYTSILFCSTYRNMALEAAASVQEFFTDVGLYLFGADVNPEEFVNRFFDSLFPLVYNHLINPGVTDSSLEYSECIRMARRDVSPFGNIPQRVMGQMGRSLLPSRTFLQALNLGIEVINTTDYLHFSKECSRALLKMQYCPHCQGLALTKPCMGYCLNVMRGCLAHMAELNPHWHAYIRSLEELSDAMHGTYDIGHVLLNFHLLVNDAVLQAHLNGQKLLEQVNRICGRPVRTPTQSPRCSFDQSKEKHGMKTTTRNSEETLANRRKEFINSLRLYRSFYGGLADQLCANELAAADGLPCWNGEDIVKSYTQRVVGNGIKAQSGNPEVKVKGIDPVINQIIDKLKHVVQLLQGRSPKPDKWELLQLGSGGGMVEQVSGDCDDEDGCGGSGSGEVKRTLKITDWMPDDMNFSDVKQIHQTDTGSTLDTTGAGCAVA
Experimental: (§1) Human GPC1 (R&D systems, cat no 4519-GP), human GPC2 (R&D systems, cat no 2304-GP), human GPC3 (R&D systems, cat no 2119-GP), human Glypican-5 (R&D systems, cat no 2607-G5) and human Glypican-6 (R&D systems, cat no 2845-GP) were directly coated overnight at 4° C. (2 μg/mL, 1×PBS buffer) on a 384-well HB SpectraPlate (PerkinElmer). The following day the plate was washed 6 times (AquaMax microplate washer, Molecular devices) and blocked with 1×PBS+1% Casein for 2 hours at room temperature. […] After 6 final wash steps the es(HS)TMB substrate (SDT) was added and the reaction stopped by addition of 1 M HCl after 10 minutes. The absorbance of the plate was measured at wavelengths 450 and 620 nm on the Clariostar instrument (BMG LABTECH) and the OD₄₅₀-OD₆₂₀ calculated and plotted for data analysis.

[3] = target: T2, human Glypican-6 (R&D systems, cat no 2845-GP) (human, UniProt Q9Y625 24-529, limits assumed); experiment: ELISA, Glypican-6 coated at 2 ug/mL
T2 construct: Bought; also called GPC6
T2 sequence (looked up): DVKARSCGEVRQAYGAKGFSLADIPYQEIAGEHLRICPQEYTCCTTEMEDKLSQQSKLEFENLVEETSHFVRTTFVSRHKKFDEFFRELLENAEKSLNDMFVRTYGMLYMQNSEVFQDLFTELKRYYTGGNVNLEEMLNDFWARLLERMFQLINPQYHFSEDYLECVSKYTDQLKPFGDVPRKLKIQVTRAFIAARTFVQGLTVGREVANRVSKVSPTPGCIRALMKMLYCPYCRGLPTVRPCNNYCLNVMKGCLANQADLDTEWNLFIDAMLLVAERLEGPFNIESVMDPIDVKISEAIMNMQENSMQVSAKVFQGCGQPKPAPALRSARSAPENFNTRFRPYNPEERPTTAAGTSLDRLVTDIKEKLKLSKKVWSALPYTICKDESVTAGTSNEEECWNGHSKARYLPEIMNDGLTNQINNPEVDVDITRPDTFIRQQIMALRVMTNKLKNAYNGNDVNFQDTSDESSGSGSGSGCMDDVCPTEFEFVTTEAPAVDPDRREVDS
Experimental: as §1

[4] = target: T3, cyno Glypican-3 delta-GPI-HIS, in-house produced (cynomolgus); experiment: SPR ProteOn XPR36, GPC3 captured on anti-His antibody, 1:1 model
T3 construct: range 3-559; also called cyno GPC3; cyGPC3
Experimental: Recombinant GPC3 proteins were captured on a GLC Sensor Chip (Biorad) immobilized with THE anti-His antibody (Genscript, cat no ABIN387699) via amine coupling, using EDC and NHS chemistry (running buffer: HBS-EP+, pH7.4). Purified ISVDs were injected for 2 minutes (flow rate 45 μL/min) at different concentrations (between 0.3 nM and 1000 nM) and dissociation was followed for 900 s. Regeneration was performed by injecting 10 mM Glycine-HCl (pH 1.5) for 1 minute (flow rate 45 μL/min). Data was double referenced by subtracting a reference ligand lane and a blank buffer injection. Processed sensorgrams were analyzed based on the 1:1 interaction model (Langmuir binding model) using ProteOn Manager 3.1.0 (Version 3.1.0.6) software.

[5] = target: T4, TCRab on primary human T cells (human, UniProt P01848 1-140; P01850 1-176); experiment: competition flow cytometry on primary human T cells, competitor T017000624 at EC30 (2E-08 M)
T4 construct: whole, on cells; T cells isolated from buffy coats; also called Primary hu T cells; human TCR
T4 TCR alpha (looked up): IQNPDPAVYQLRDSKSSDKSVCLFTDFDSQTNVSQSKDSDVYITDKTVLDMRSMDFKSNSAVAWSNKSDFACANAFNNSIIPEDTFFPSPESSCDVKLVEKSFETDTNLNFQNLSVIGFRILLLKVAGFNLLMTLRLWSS
T4 TCR beta (looked up): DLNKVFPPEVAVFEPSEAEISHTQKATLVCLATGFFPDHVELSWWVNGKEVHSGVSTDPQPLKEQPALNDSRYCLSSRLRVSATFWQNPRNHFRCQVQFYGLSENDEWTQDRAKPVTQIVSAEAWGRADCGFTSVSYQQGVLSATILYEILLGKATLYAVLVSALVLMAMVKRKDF
Experimental: T cells (human T cells obtained as described in Example 3 and cyno T cells purchased from LPT laboratory, Germany) were thawed and counted on the day of the assay and diluted to a concentration of 1E+06 cells/mL, before adding 75 μL to the wells of a V-bottom 96-well plate (Greiner, cat no 651180). Cells were washed once with cold FACS buffer, before adding 25 μL Nb and 25 μL competitor to the wells. […] Cells were resuspended and plates were incubated at 4° C. for 90 minutes, after which plates were washed twice in cold FACS buffer. Cells were resuspended in 50 μl 1/1000 diluted Monoclonal ANTI-FLAG® M2 (Sigma Aldrich, cat no F1804) in FACS buffer and incubated at 4° C. for 30 minutes. Plates were washed twice in cold FACS buffer. […] Plates were washed twice in cold FACS buffer. Cells were resuspended in 55 μL 1/1000 diluted Propidium Iodide (Sigma-Aldrich, cat no P4170) in FACS buffer before acquiring data on the MACSQuant X (Miltenyi biotec).

B1: A022600424 (other)
chain: DVQLVESGGGVVQPGGSLRLSCVASGYVHKINFYGWYRQAPGKEREKVAHISIGDQTDYADSAKGRFTISRDESKNTVYLQMNSLRPEDTAAYYCRALSRIWPYDYWGQGTLVTVSSGGGGSEVQLVESGGGVVQPGGSLRLSCAASGFTFSSFAMTWVRRPPGKGLEWVATITNKGVTSYADSVKGRFTISRDNAKNTLYLQMNSLRPEDTALYICANARRTGPRAPTDIGSYRGQGTLVTVSSGGGGSGGGSEVQLVESGGGVVQPGGSLRLSCAASGSIFRSVFSSSTMEWYRQAPGKKRELVARIAPGEGTYYGALYADSVKGRFTISRDNAKNTVYLQMNSLRPEDTALYYCASGVAWGQGTLVTVSSGGGGSGGGSEVQLVESGGGVVQPGGSLRLSCAASGFTFRSFGMSWVRQAPGKGPEWVSSISGSGSDTLYADSVKGRFTISRDNSKNTLYLQMNSLRPEDTALYYCTIGGSLSRSSQGTLVTVSSA
notes: Trispecific tetravalent ISVD (VHH) T-cell engager: anti-TCR, two anti-GPC3 (biparatopic), anti-albumin; also called TCE01-5GS-A022600351-9GS-A022600314-9GS-ALB23002-A
B1 was tested, and the “IC50 (M), xCELLigence TDC assay on Huh-7, Primary cy T cells” value [1] was 2.29e-10 M, the “IC50 (M), xCELLigence TDC assay on Huh-7, Primary hu T cells” value [1] was 7.59e-11 M and the binding result [2] was “no binding”. For the same binder, the binding result [3] was “no binding”, the Kd [4] was under 0.0059 nM and the IC50 [5] was 170 nM.
